Data on 2 substances can be found in paper PMC12914668.

What all share (test): fluorescence polarisation; fluorescence anisotropy; 5 nM OG488-labelled histone monomer held constant, ligase complex titrated; 20 mM Tris-HCl pH 7.5, 10 mM NaCl, 5% glycerol, 1 mM DTT; 25 °C, 1 to 2.5 h; BSA-coated black 96-well plates
Test [1] addresses Xenopus laevis histone H4 V22C, Oregon Green 488 labelled (Xenopus laevis) (UniProt P62799).
Test [2] deals with Xenopus laevis histone H3, Oregon Green 488 labelled at C110 (Xenopus laevis) (UniProt P84233).
Test [3] has as its target Xenopus laevis histone H2A K119C, Oregon Green 488 labelled (Xenopus laevis).

For the substance “ASB9-ELOB/C-CUL5-RBX2 (ASB9-CRL5), not neddylated (from UniProt Q96DX5 1-294; Q15370 1-118; Q15369 1-112; Q93034 1-780; Q9UBF6 1-113) (complex)”, the Kd in test [1] was found to be 79.7 nM; in test [2], 187 nM; in test [3] it was 341 nM.
As to “NEDD8-ASB9-ELOB/C-CUL5-RBX2 (neddylated ASB9-CRL5) (from UniProt Q96DX5 1-294; Q15370 1-118; Q15369 1-112; Q93034 1-780; Q9UBF6 1-113; Q15843 1-76) (complex)”, the Kd in test [1] is 48.4 nM; in test [2], 78.2 nM.
